Results from the MegaScale stability set (Tsuboyama et al. 2023).

B1: EEHEE_rd4_0469 (parent)
chain: ITIHVNGVTYHFDNPEEAEKFAQKMAKTYQLKMEIHNGEFHME

Variants of: B1
Assay: folding stability dG (cDNA display proteolysis); higher = more stable
Conditions: PBS, room temperature

Folding stability dG [kcal/mol], by site and new letter:
F12: W 0.481 | A -0.214 | C 1.07 | P -0.616 | Y 0.526 | M 0.391 | G -0.935 | S -0.408 | T -0.211 | I 0.352 | K -0.93 | H -0.29 | N -0.578 | V 0.034 | L 0.299 | Q -0.822
H4: S 0.684 | R 1.08 | P 0.265 | V 0.899 | Y 1.29 | N 0.813 | Q 0.774 | T 0.943 | W 1.35
Y10: Q -0.14 | L 0.756 | A 0.111 | F 1.19 | E -0.243 | I 0.806 | C 1.52 | H 0.792 | N -0.261 | K 0.307 | T 0.067 | V 0.557 | R 0.338 | S -0.597 | M 0.573 | W 1.07
N6: H 1.35 | S 1.07 | G 1.14 | A 1.3 | Q 1.26 | T 1 | Y 1.73 | K 1.37 | W 1.88 | I 1.51 | P 0.4 | F 2.18 | L 1.79 | R 1.27 | E 1.2 | V 1.42 | D 1.11 | M 1.73
V5: I 1.14 | D 0.38 | A 0.938 | P -0.199 | N 0.312 | Y 0.92 | F 1.24 | E 0.203 | S 0.42 | C 1.77 | T 0.534 | L 0.899 | R 0.306 | W 1.2 | M 0.927 | G 0.398 | Q 0.252 | K 0.112 | H 0.711
H11: A 1.02 | L 1.02 | W 1.24 | P 0.279 | F 1.17 | R 1.13 | M 1.03 | I 1.04 | K 1.12 | V 1.07 | Y 1.18 | D 0.692 | Q 1.01 | T 1.07 | G 0.636 | E 0.843 | S 1.05 | N 0.977
D13: A 1.2 | C 1.81 | K 1.1 | F 1.15 | I 1.3 | R 1.15 | T 1.25 | G 1.11 | P 1.17 | S 1.26 | E 1.11 | L 1.28 | V 1.21 | Q 1.11 | M 1.16 | H 1.2 | N 1.13
G7: I 2.4 | K 1 | Y 1.26 | E 0.803 | M 1.22 | D 0.859 | Q 0.959 | P -0.022 | V 1.83 | F 1.65 | T 0.96 | S 1.07 | L 1.33 | N 1.07 | R 1.04 | W 1.43 | A 0.95 | H 1.13
T9: C 1.86 | F 0.925 | I 1.19 | Y 0.832 | V 1.25 | D 0.639 | Q 1.27 | E 0.827 | L 1.15 | S 1.17 | R 1.4 | G 1.11 | H 1.11 | K 1.51 | N 0.826 | A 1.39 | P 1.51 | M 1.21 | W 0.84
V8: K 1.38 | H 1.11 | I 1.13 | N 1.12 | S 1.09 | R 1.43 | G 0.858 | Q 1.06 | D 1.01 | A 1.11 | Y 1.29 | T 1.12 | M 1.18 | W 1.47 | F 1.36 | E 1.09 | L 1.19
